Measured values from PMC11154664, “Characterization of Complex Proteoform Mixtures by Online Nanoflow Ion-Exchange Chromatography-Native Mass Spectrometry” (Analytical Chemistry, 2024).

Biological target: the molecule itself
Test: native MS; online nanoflow strong cation exchange chromatography coupled to nESI native MS (nanoSCX-nMS); salt-mediated pH gradient from 50 mM ammonium acetate pH 5.0 to 250 mM ammonium acetate pH 8.5

B1: alcohol dehydrogenase (enzyme, UniProt P00330 1-348, looked up)
chain: MSIPETQKGVIFYESHGKLEYKDIPVPKPKANELLINVKYSGVCHTDLHAWHGDWPLPVKLPLVGGHEGAGVVVGMGENVKGWKIGDYAGIKWLNGSCMACEYCELGNESNCPHADLSGYTHDGSFQQYATADAVQAAHIPQGTDLAQVAPILCAGITVYKALKSANLMAGHWVAISGAAGGLGSLAVQYAKAMGYRVLGIDGGEGKEELFRSIGGEVFIDFTKEKDIVGAVLKATDGGAHGVINVSVSEAAIEASTRYVRANGTTVLVGMPAGAKCCSDVFNQVVKSISIVGSYVGNRADTREALDFFARGLVKSPIKVVGLSTLPEIYEKMEKGQIVGRYVVDTSK
notes: alcohol dehydrogenase (ADH), model oligomeric protein called a tetramer; also called ADH
stoichiometry N: 4
